Test results from the nanobody polyreactivity screen of Harvey et al. (2022).

Experiment: yeast display, Sf9 membrane polyspecificity reagent, FACS + sequencing; frameworks hold sequencing errors
Procedure, shortened: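 Galactose-induced (36–48 hours) yeast carrying a synthetic nanobody display library were exposed to 10% biotinylated, detergent-solubilized Sf9 membrane reagent at 4 °C for 1 hour. FACS followed streptavidin microbead enrichment, using low and high (top ~1%) gates for expression (anti-HA) and reagent binding (streptavidin). Colony PCR, MiSeq 2 × 250 sequencing and CDR-length filtering followed. Labels for polyreactivity reflect the gate of origin.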

Sequence | polyreactivity (PSR sort gate)
QVQLVESGGGLVQAGGSLRLSCAASGRIFGRYAMGWYRQAPGKERELVAVISSGGSTYYADSVKGRFTISRDNAKNTVYLQMNSLKREDTAVYYCAAVNRGGYDYWGQGTQVTVSS | low polyreactivity
QVHLVESGGGLVQAGGILRLSCSAYGSIFDVNAKGWYRQSPGKERELVAAISDSGGSTYYADSVKGRFTISRDNAKNTVYLQMNSLKPEDTSVYYCNADWYWYNYYDFDYWGQGTQVTVSS | low polyreactivity
QVQLVESGGGLVQAGGSLRLSCAACGSTFFPYAMGWYRQAPGKERELVAAITSGGRTKYADSVKGRFTISRDNAKNTVYLQMNSLKPEDTAVYYCAARGLIKEYGGPYRRFGYWGQGTQVTVSS | high polyreactivity
QVQLVESGGGLVQAGGSLRLSCAASGSIFDFYDMGWYRPAPGKERELVAAISSGGGSTYYADSVKGRFTISRDNAKNTVYLQMNSLKPEDTAVYYCAADLKGNYYLGIARYVLYYWGQGTQVTVSS | low polyreactivity
QVQLVESGGGLVQAGGSLRLSCAASGFTFDFYAMGWYRQAPGKERELVAAISKNDGTTYYADSVKGRFTISRDNAKNTVYLQMNSLKPEDTAVYYCAAESGYAVYTYVSSGDYWGQGTQVTVSS | low polyreactivity
QVPLVESGGGLVQAGGSLRLSCAASGFIFPNYVMGWYRQEPGKEREFVAGISVRGGRTYYADSVKGRFTISRDNAKNTVYLQMNSLKPEDTAVYYCAADRKASAFNYWGQGTQVTVSS | high polyreactivity
QVQLEESGGGLVQAGGSLRLSCAASGFIFSSNAMGWYRQAPGKESQLVARITRSDGSTYYADSVKGRFTISRDSAKNTVYLQMNSLKPEDTAFDYCAKGRDATHYEYYLYSMDYWGQGTQVTVSS | low polyreactivity
QVQLVESGGGLVQAGGSLRLSCAASGFTFSWYAMGWYRQAPGKETELVAAITRSGGSTNYADSVKGRFTISRDNAKNTVYLQMNSLKPEDTAVYYCNAAGYRRSTWWYDYWGQGTQVTVSS | high polyreactivity
QVQLVESGGGLVQAGGSLRLSCAASGSIFGRYAMGWYRQAPGKERELVAAITRSGVSTYYADSVKGRFTISGDYAKNTVYLQMNSLKPEETAVYYCNAYYRIRSSPYGYYYWGEGTQVTVSS | high polyreactivity
QVQLVESGGGLVQAGGSLRLSCAASGRILWYYAMGWYRQAPGKERELVASISWSGGRTYYADSVKGRFTISRDNAKNTVYLQMNSLKPEDTAVYYCAAQLTRWRKPGDMEYWGQGTQVTVSS | high polyreactivity
QVQLVESGGGLVQAGGSLRLSCAASGSTFTKNAMGWYRQAPGKERELVVVINRSGTSTYYADSVKGRFTISRDNAKNTVYLQMNSLKPEDTAVYYCATKYARTAGGGYYWGQGTQVTVSS | high polyreactivity
QVQLVESGGGLVQAGGSLRLSCAASGRTFFGYAMGWYRQATGKERELVAAINWGGASTYYADSVKGRFTISRDNAKNTVYLQMNSLKPEDTAVYYCAADSVPSRPTYGRYDYWGQGTQVTVSS | low polyreactivity
QVQLVESGGGLVQAGGSLRLSCAASGRIFSVNAMGWYRQAPGKERELVASISWSGGSTYYADSVKGRFTISRDNAKNTVYLQMNSLKPEDTAVYYCNARIESYWLDFDYWGQGTQVTVSS | low polyreactivity
QVQHVESGGGLVQAGGSLRLSCAASGRTFDYYAMGWYRQAPGKERELVASIRSSGRTTYADSVKGRFTISRDNAKNTDYLQMNSRKPEDTAVYYCAAQWPGWWGYDYWGQGTQVTVSS | low polyreactivity
QVQLVESGGGLVQAGGSLRLSCAPSGRTFNYNAMGWYRQAPGKERELVAAITSSGGGTSYADSVKGRFTISRDNAKNTVYFQMNSLKPYYTAVYYCAAEVDRGKYCSTYRGGDYCGQGTQVTVSS | high polyreactivity
QVQLVESGGRLVQAGGSLRLSCAASGITFIDYAMGWYRQAPGKERELVAAIRYSAGSTYYADSVKGRFTISRDNAKNTVYLQMNSLKPEDTAVYYCARTTPSGRQYRRYDYWGQGTQVTVSS | low polyreactivity
QVQLEESGGGLVQAGGSLRLTCAASGRTFLGNAMGSYRQAPGKEREFVAVISHSGGGTSYADSVKGRFTISRDNAKNTVYLQMNSLKAEETAVYYCAAYSVSSTTWYYYDEYGYWGQGTQVTVSS | low polyreactivity
QVQLVESGGGLVQAGGSLRLSCAASGFTFIRYAMGWYRQAPGKERELVATITRRGGSTYYADSVKGRFTISRDNAKNTVYLQMNSLKPEDTAVYYCNRDYVTYGKYYYWGQGTQVTVSS | high polyreactivity
QVQLVESGGGLVQAGGSLRLSCAASGRIFYSYAMGWYRQAPGKERELVAVITYRGGRTYYADSVKGRFTISRDNAKNTVYLQMNSLKPEDTAVYYCARDPQFYLHTVTDGAYNYWGQGTQVTVSS | low polyreactivity
QVQLVEYGAALVKAGGSLRLSCAPSGSIFDFYVMGWYRQAPGKERELVAAISSGGSTYYADSVKGRFTISRDNAKNTVYLQMNSLKPEDSAVYYCAAYPEYVSGAWYDYWGLGTQVTVSS | low polyreactivity

Sequence | polyreactivity (PSR sort gate)
QVQLVESGGGLVQAGGSLRLSCAASGRIFAGYAMGWYRQAPGKERELVAAISKRGGSTYYADSVKGRFTISRDKAKNTVYLQMNSLKPEDTAVYYCAADTGYPNGQGQGYQNFGGYYWGQGTQVTVSS | high polyreactivity
QVQLVESGGALVQAGGSLRLSCAASGRIFWHNAMGWYRQAPGKERELVAAISSRGGSTSYADSVKGLFTISRDNAKNTVYLQMNSLKPEETAVYYCNARNQAYYRVWGYRGDYWGQGTQVTVSS | low polyreactivity
QVQLVESGGGLVQAGGSLRLSCAASGSIFAKYAMGWYRQAPGKERELVAAITSSGDSTNYADSVKGRFTISRDNAKNTVYLQMNSLKPEDTAVYYCAADDQYGYVYYAFWGYDYWGQGTQVTVSS | low polyreactivity
QVQLVESGGGLVQAGGSLRLSCAASGSIRYYAMGWYRQAPVKEREFVAAISRRGSSTNYADSVKGRFTISRDNAKNTVYLQMNSLKPDDTAVYYCARGLDVISYGYDYWGQGTQVTVSS | high polyreactivity
QVQLVESGGAKVQAGGSLRLSCAASGRTFDYYVMGWNRQAPVKEREFVAAITWSGDSTYYADSVKGRFTISRENAKNTVYLQMNSLKPEDTAVYYCNADYYPTTFYAFVYMYDYWGQGTQVTVSS | low polyreactivity
QVQLVESGGGLVQAGGSLRLSCAASGSTLGGNAMGWYRRAPGKERELVAAITSSAGSTYYADSVKGRFTISRDNAKNTVYLQMNSLKPEDTAVYYCAADYSRDEYDYWGQGTQVTVSS | low polyreactivity
QVQIVESGGGLVQAGGSLRLSCAASGRTFAGNAMGWYRQAPGKERELVAGISSGGSTNNADSVKGRFTISRDNAKNTVYLQMNSLNPEDTAVYYCAKRYFRKGYPLFHYAYGYWGQGTQVTVSS | high polyreactivity
QVQLVESGGGLVQAGGSLRLSCAASGRIFRVNAMGWYRQAPGKERELVASITKSTGSTYYADSVKGRFTISRDNAKNTVYLQMNSLKPEDTAVYYCAKAASYPVRAFYYWGQGTQVTVSS | high polyreactivity
QVQLVESGGGLVQAGGSLRLSCGASGRIFYYYVMGWSRQGPGKERELVAVIDWSGGSTYYADSVKGRFTISRDNAKNTVYLQMNSLKPEDTAVYYCAKVWLKFSLAYEDYVYWGQGTQVTVSS | low polyreactivity
QVQLVESGGGLVQAGGSLRLSCAASGLTSNGYTMGWYRQAPGKERELVAAITGRDGSTYADSVKGRFTISRDNAKNTVYLQMNSLKPEHTAVYYCAARLWRYRRYDYWGQGTQVTVSS | high polyreactivity
QVQLVESVGGLVQAGGSLRLSCAASGFIFGYNAMGWYRQAPGKERELVAAIDSGDSTYYADSVKGRFTISRDNAKNTVYLQMNSLKPEDTAVYFCATDVTFVYDFGYFQYDYWGQGTQVTVSS | low polyreactivity
QVQLVESGGGLVQAGGSLRLSCAASGSTLEYYAMGWYRQAPGKERELVAAISSGGSTNYADSVKGRFTISRDNAKNTVYLQMNSLKTEDTAVYYCAAERYYRFVYTCYDYWGQGTQVTVSS | high polyreactivity
QVQLVESGGGLDQAGGSLRLSCPASGRTISRNTMGWYRPAPGKERELVAGITYGGDRTYYADSVKGRFTISRDNAKNTVYLQMNSLKPEDTAVYYCAAPWYWKGLRDYWGQGTQVTVSS | low polyreactivity
QVQLVESGGGLVQAGGSLRLSCAASGIIFRYNAMGWYRPAPGKERELVAAITSGGITKYADSVKGRFTISRDNAKNTVYLQMNSLKPEDTAVYYCNAEYGFFRAGSRGEYWGQGTQVTVSS | low polyreactivity
QVQLVESGGGLVQAGGSLRLSCAASGRTFTIYTMGWYRQAPGKERELVAAISRGGRTNYADSVKGRFTISRDNAKNTVYLQMNSLKPEDTAVYYCNADGSRYYTAYRLRLPYDYWGQGTQVTVSS | high polyreactivity
QVQLVESGGGLVQAGGSLRLSCAASGRTFRHNAMGWYRQAPGKERELVAANSSGGSTYYADSVKGRFTISRDNAKNTVYLQLYSLKREDTAVYYCAASRYRPYGGTTTDYWGQGTQLTVSS | high polyreactivity
QVQLVESGGGLVQAGGSLRLSCAASGRIFNVYAMGWYRQAPGKERELVASINSAGSTYYADSVKGRFTISRDNAKNTVYLQMNSLKPEDTAVYYCAADSYSVYYYTYDSWGQGTQVTVSS | low polyreactivity
QVQLVESGGGLVQAGGSLRLSCAASGRTIVWYAMGWYRQAPGKERELVAAISKRGGSTYYADSVKGRFTISRDNAKNTVYLQMNSLKPEDTAVYYCAAEVYYGSSYGYWGQGTQVTVSS | high polyreactivity
QVQLVESGGGLVQAGGSLRLSCAASGSIFGYNPMGWYIQAPGKERELVAAISRSGGRTYYADSVKGRFTISRDNAKNTVYLQMNSLKPEDTAVYDCAAPVWRYYRGKTFDYWGQGTQVTVSS | high polyreactivity
QVQLVESGGGVVQAGGSLRLSCAASGSTFYPYALGWYRQAPGKERELVAGITVIDGSTYYADSVKGRFTISRDNAKNTVYLQMNSLKPEDTAVYYCAVDAPNQVQEYGYWGQGTQVTVSS | low polyreactivity
